Test results as given in patent US20260098270, “MULTIVALENT TRIDENT […] FOR MOLECULAR RECOGNITION, METHODS OF MAKING AND USES […]” (MCMASTER UNIVERSITY, published 2026).

Key:
[1] = molecular target: VEGF165 (UniProt P15692-4 P15692-4:27-191); assay: filter; conditions: chain copies: 2 (stated dimeric)
[2] = molecular target: T1, Amylase (UniProt P0DUB6 P0DUB6:16-511); assay: ELONA; conditions: tags: Sigma-Aldrich A1031
T1 sequence: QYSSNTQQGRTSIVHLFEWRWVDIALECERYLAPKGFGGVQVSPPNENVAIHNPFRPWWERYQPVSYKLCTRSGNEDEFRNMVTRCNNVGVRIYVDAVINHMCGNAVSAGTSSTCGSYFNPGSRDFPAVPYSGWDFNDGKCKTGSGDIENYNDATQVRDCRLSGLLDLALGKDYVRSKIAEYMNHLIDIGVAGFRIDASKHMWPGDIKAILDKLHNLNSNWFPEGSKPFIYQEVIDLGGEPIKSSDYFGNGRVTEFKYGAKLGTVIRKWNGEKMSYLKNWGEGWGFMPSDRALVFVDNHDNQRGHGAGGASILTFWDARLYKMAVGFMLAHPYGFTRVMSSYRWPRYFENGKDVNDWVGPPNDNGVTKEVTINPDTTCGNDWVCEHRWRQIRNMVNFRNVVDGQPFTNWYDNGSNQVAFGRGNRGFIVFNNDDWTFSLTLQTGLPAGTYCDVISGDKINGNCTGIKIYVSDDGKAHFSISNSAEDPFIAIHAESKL

[3] = molecular target: Spike RBD of seasonal coronavirus OC43 (Human coronavirus OC43, UniProt P36334 P36334:333-607); assay: ELONA; conditions: tags: from Dr. Matthew Miller's lab, McMaster University
[4] = molecular target: T2, Bovine serum albumin (BSA) (Bos taurus, UniProt P02769 P02769:25-607); assay: ELONA; conditions: tags: Sigma-Aldrich A7906
[5] = molecular target: SARS-CoV-1 spike protein (SARS-CoV-1, UniProt P59594 P59594:14-1195); assay: ELONA; conditions: tags: from Dr. Matthew Miller's lab, McMaster University; label: biotin
[6] = molecular target: Spike RBD of seasonal coronavirus 229E (Human coronavirus 229E, UniProt P15423 P15423:293-435); assay: ELONA; conditions: tags: from Dr. Matthew Miller's lab, McMaster University
[7] = molecular target: T2, Bovine serum albumin (BSA); assay: filter; dot blot, no binding; conditions: tags: Sigma-Aldrich A7906; label: 5'-32P
[8] = molecular target: SARS-CoV-2 spike S1 subunit (SARS-CoV-2, UniProt P0DTC2 P0DTC2:14-685); assay: filter

Chain of VEGF165 (P15692 other isoform, or with tags, fused parts or gaps): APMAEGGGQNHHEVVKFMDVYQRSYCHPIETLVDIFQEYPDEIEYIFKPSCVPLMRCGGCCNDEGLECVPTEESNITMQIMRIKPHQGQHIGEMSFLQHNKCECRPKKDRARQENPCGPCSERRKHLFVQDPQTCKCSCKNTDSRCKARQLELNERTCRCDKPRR
T2 sequence (P02769 25-607, one chain of several): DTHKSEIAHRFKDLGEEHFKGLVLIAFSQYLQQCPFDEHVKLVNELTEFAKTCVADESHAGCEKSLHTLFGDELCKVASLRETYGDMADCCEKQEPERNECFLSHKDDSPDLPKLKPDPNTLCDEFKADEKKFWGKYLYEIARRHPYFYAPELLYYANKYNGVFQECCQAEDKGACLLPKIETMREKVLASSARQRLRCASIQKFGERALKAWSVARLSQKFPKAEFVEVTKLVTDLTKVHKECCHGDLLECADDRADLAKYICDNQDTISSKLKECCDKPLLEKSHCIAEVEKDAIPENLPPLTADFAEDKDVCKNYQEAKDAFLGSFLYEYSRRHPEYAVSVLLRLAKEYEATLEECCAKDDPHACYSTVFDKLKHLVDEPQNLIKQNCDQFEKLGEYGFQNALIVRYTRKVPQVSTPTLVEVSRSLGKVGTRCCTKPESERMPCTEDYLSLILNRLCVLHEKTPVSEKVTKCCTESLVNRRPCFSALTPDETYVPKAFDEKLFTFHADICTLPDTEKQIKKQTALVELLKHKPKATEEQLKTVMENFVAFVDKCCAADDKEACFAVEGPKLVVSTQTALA
Chain of Spike RBD of seasonal coronavirus OC43 (P36334 333-607, one chain of several): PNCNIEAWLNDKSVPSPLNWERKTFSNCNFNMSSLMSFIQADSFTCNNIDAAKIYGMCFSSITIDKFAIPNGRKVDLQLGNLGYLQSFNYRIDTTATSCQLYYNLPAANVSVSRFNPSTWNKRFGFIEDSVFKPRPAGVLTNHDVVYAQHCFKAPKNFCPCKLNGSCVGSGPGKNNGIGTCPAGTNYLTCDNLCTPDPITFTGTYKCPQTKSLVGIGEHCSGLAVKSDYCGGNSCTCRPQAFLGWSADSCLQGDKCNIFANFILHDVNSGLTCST
Chain of Spike RBD of seasonal coronavirus 229E (P15423 293-435, one chain of several): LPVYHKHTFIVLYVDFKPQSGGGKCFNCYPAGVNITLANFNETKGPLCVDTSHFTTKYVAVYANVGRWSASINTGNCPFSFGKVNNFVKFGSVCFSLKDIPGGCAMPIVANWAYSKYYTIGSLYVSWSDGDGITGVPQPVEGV

B1: H1A (ssDNA)
DNA: GCCCGTCTTCCAGACAAGAGTGCAGGGC
[1]
  Kd: 21.3 nM

B2: Trimeric (trident) H1A (ssDNA)
DNA: GCCCGTCTTCCAGACAAGAGTGCAGGGCTTTTTCTCTCGC
modifications: three identical arms joined by Trebler, root TTTTT-Biotin
[1]
  Kd: 0.27 nM

B3: TMSA52-B (ssDNA)
DNA: TTACGTCAAGGTGTCACTCCGTAGGGTTTGGCTCCGGGCCTGGCGTCGGTCGTCTCTCGCGAAGCATCTCTTTGGCGTGTTTTTTTTTTTTTTT
modifications: three identical arms joined by Trebler, root TTTTT-Biotin
[2]
  binding result: no binding
[3]
  binding result: no binding
[4]
  binding result: no binding
[5]
  binding result: no binding
[6]
  binding result: no binding

B4: Trimeric (trident) RHA06 (ssDNA)
DNA: GGGTTTGGGTTGGGTTGGGTTTTTGGGTTTGGGTTGGGTTGGGAAAAATTTTTCTCTCGC
modifications: three identical arms (SEQ 12) joined by Trebler, root TTTTT-Biotin
[7]
  binding result: no binding

B5: TMSA52T8 (ssDNA)
DNA: CGAAGCATCTCGTGTCACTCCGTAGGGTTTGGCTCCGGGCCTGGCGTCGTTTTTCTCTCGC
modifications: three identical arms joined by Trebler, root TTTTT-Biotin
[8]
  Kd: 0.21 nM

B6: MSA52T8 (ssDNA)
DNA: CGAAGCATCTCGTGTCACTCCGTAGGGTTTGGCTCCGGGCCTGGCGTCG
[8]
  Kd: 6.5 nM
